Values quoted from earlier work as cited in article PMC11533685.

What was measured:
[1] = biological target: CD200R ECD (UniProt Q8TD46); test: SPR
[2] = biological target: CD58 ECD (Homo sapiens) (UniProt P19256); test: SPR
Sequence of UniProt P19256 (P19256 29-215): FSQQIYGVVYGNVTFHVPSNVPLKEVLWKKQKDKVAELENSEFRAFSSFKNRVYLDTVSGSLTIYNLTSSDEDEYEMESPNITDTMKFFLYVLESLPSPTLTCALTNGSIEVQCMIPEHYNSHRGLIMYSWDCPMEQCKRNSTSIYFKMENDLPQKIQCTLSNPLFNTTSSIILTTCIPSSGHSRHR

Sequence of UniProt Q8TD46 (Q8TD46 25-265): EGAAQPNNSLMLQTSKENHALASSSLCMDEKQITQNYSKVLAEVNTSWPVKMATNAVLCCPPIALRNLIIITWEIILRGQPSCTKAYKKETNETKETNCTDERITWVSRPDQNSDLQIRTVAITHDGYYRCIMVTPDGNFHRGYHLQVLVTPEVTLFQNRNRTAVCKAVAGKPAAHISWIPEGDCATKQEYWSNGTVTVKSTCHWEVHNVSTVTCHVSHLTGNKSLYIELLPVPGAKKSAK

Kd [2] [µM] | Substance | Kd [1] [nM]
 | CD200 ECD (from UniProt P41217) | 1000
10 | CD2 ECD (from UniProt P06729) | 
